# Results taken from patent US20240261333A1, “NOVEL TARGETS FOR ENHANCING ANTI-TUMOR IMMUNITY” (THE BROAD INSTITUTE, INC., priority 2021, published 2024).
# T1: B3GNT2 (Homo sapiens, UniProt Q9NY97)
# T1 construct: The respective ORFs of candidate genes [CD274 (NM_014143), MCL1 (NM_021960), JUNB (NM_002229), and B3GNT2 (NM_006577)] were synthesized; expressed in transfected cells; host or cells: A375 melanoma cells (lentiviral ORF overexpression)
# T1 sequence (Q9NY97 1-397): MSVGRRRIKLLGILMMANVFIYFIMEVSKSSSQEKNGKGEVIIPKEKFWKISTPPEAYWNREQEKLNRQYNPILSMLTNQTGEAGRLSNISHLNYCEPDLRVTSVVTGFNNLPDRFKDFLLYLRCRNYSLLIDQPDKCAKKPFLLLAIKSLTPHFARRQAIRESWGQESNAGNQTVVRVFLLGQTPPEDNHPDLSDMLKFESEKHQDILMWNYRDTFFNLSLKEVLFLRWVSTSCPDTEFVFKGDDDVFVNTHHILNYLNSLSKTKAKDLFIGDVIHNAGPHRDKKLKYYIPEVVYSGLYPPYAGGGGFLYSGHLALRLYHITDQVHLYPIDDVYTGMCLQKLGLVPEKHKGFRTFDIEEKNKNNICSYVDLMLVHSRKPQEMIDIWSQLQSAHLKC
# B1: FUBP3 (protein)
# chain: AELVQGQSAPVGMKAEGFVDALHRVRQIAAKIDSIPHLNNSTPLVDPSVYGYGVQKRPLDDGVGNQLGALVHQRTVITEEFKVPDKMVGFIIGRGGEQISRIQAESGCKIQIASESSGIPERPCVLTGTPESIEQAKRLLGQIVDRCRNGPGFHNDIDSNSTIQEILIPASKVGLVIGRGGETIKQLQERTGVKMVMIQDGPLPTGADKPLRITGDAFKVQQAREMVLEIIREKDQADFRGVRGDFNSRMGGGSIEVSVPRFAVGIVIGRNGEMIKKIQNDAGVRIQFKPDDGISPERAAQVMGPPDRCQHAAHIISELILTAQERDGFGGLAAARGRGRGRGDWSVGAPGGVQEITYTVPADKCGLVIGKGGENIKSINQQSGAHVELQRNPPPNSDPNLRRFTIRGVPQQIEVARQLIDEKVGGTNLGAPGAFGQSPFSQPPAPPHQNTFPPRSSGCFPNMAAKVNGNPHSTPVSGPPAFLTQGWGSTYQAWQQPTQQVPSQQSQPQSSQPNYSKAWEDYYKKQSHAASAAPQASSPPDYTMAWAEYYRQQVAFYGQTLGQAQAHSQEQ
# B2: UBAP2L (protein)
# chain: MMTSVGTNRARGNWEQPQNQNQTQHKQRPQATAEQIRLAQMISDHNDADFEEKVKQLIDITGKNQDECVIALHDCNGDVNRAINVLLEGNPDTHSWEMVGKKKGVSGQKDGGQTESNEEGKENRDRDRDYSRRRGGPPRRGRGASRGREFRGQENGLDGTKSGGPSGRGTERGRRGRGRGRGGSGRRGGRFSAQGMGTFNPADYAEPANTDDNYGNSSGNTWNNTGHFEPDDGTSAWRTATEEWGTEDWNEDLSETKIFTASNVSSVPLPAENVTITAGQRIDLAVLLGKTPSTMENDSSNLDPSQAPSLAQPLVFSNSKQTAISQPASGNTFSHHSMVSMLGKGFGDVGEAKGGSTTGSQFLEQFKTAQALAQLAAQHSQSGSTTTSSWDMGSTTQSPSLVQYDLKNPSDSAVHSPFTKRQAFTPSSTMMEVFLQEKSPAVATSTAAPPPPSSPLPSKSTSAPQMSPGSSDNQSSSPQPAQQKLKQQKKKASLTSKIPALAVEMPGSADISGLNLQFGALQFGSEPVLSDYESTPTTSASSSQAPSSLYTSTASESSSTISSNQSQESGYQSGPIQSTTYTSQNNAQGPLYEQRSTQTRRYPSSISSSPQKDLTQAKNGFSSVQATQLQTTQSVEGATGSAVKSDSPSTSSIPPLNETVSAASLLTTTNQHSSSLGGLSHSEEIPNTTTTQHSSTLSTQQNTLSSSTSSGRTSTSTLLHTSVESEANLHSSSSTFSTTSSTVSAPPPVVSVSSSLNSGSSLGLSLGSNSTVTASTRSSVATTSGKAPPNLPPGVPPLLPNPYIMAPGLLHAYPPQVYGYDDLQMLQTRFPLDYYSIPFPTPTTPLTGRDGSLASNPYSGDLTKFGRGDASSPAPATTLAQPQQNQTQTHHTTQQTFLNPALPPGYSYTSLPYYTGVPGLPSTFQYGPAVFPVAPTSSKQHGVNVSVNASATPFQQPSGYGSHGYNTGVSVTSSNTGVPDISGSVYSKTQQSFEKQGFHSGTPAASFNLPSALGSGGPINPATAAAYPPAPFMHILTPHQQPHSQILHHHLQQDGQTGSGQRSQTSSIPQKPQTNKSAYNSYSWGAN
# B3: GGCT (protein)
# chain: MANSGCKDVTGPDEESFLYFAYGSNLLTERIHLRNPSAAFFCVARLQDFKLDFGNSQGKTSQTWHGGIATIFQSPGDEVWGVVWKMNKSNLNSLDEQEGVKSGMYVVIEVKVATQEGKEITCRSYLMTNYESAPPSPQYKKIICMGAKENGLPLEYQEKLKAIEPNDYTGKVSEEIEDIIKKGETQTL
# B4: SAMM50 (protein)
# chain: MGTVHARSLEPLPSSGPDFGGLGEEAEFVEVEPEAKQEILENKDVVVQHVHFDGLGRTKDDIIICEIGDVFKAKNLIEVMRKSHEAREKLLRLGIFRQVDVLIDTCQGDDALPNGLDVTFEVTELRRLTGSYNTMVGNNEGSMVLGLKLPNLLGRAEKVTFQFSYGTKETSYGLSFFKPRPGNFERNFSVNLYKVTGQFPWSSLRETDRGMSAEYSFPIWKTSHTVKWEGVWRELGCLSRTASFAVRKESGHSLKSSLSHAMVIDSRNSSILPRRGALLKVNQELAGYTGGDVSFIKEDFELQLNKQLIFDSVFSASFWGGMLVPIGDKPSSIADRFYLGGPTSIRGFSMHSIGPQSEGDYLGGEAYWAGGLHLYTPLPFRPGQGGFGELFRTHFFLNAGNLCNLNYGEGPKAHIRKLAECIRWSYGAGIVLRLGNIARLELNYCVPMGVQTGDRICDGVQFGAGIRFL
# B5: EIF5B (protein)
# chain: MGKKQKNKSEDSTKDDIDLDALAAEIEGAGAAKEQEPQKSKGKKKKEKKKQDFDEDDILKELEELSLEAQGIKADRETVAVKPTENNEEEFTSKDKKKKGQKGKKQSFDDNDSEELEDKDSKSKKTAKPKVEMYSGSDDDDDFNKLPKKAKGKAQKSNKKWDGSEEDEDNSKKIKERSRINSSGESGDESDEFLQSRKGQKKNQKNKPGPNIESGNEDDDASFKIKTVAQKKAEKKERERKKRDEEKAKLRKLKEKEELETGKKDQSKQKESQRKFEEETVKSKVTVDTGVIPASEEKAETPTAAEDDNEGDKKKKDKKKKKGEKEEKEKEKKKGPSKATVKAMQEALAKLKEEEERQKREEEERIKRLEELEAKRKEEERLEQEKRERKKQKEKERKERLKKEGKLLTKSQREARARAEATLKLLQAQGVEVPSKDSLPKKRPIYEDKKRKKIPQQLESKEVSESMELCAAVEVMEQGVPEKEETPPPVEPEEEEDTEDAGLDDWEAMASDEETEKVEGNKVHIEVKENPEEEEEEEEEEEEDEESEEEEEEEGESEGSEGDEEDEKVSDEKDSGKTLDKKPSKEMSSDSEYDSDDDRTKEERAYDKAKRRIEKRRLEHSKNVNTEKLRAPIICVLGHVDTGKTKILDKLRHTHVQDGEAGGITQQIGATNVPLEAINEQTKMIKNFDRENVRIPGMLIIDTPGHESFSNLRNRGSSLCDIAILVVDIMHGLEPQTIESINLLKSKKCPFIVALNKIDRLYDWKKSPDSDVAATLKKQKKNTKDEFEERAKAIIVEFAQQGLNAALFYENKDPRTFVSLVPTSAHTGDGMGSLIYLLVELTQTMLSKRLAHCEELRAQVMEVKALPGMGTTIDVILINGRLKEGDTIIVPGVEGPIVTQIRGLLLPPPMKELRVKNQYEKHKEVEAAQGVKILGKDLEKTLAGLPLLVAYKEDEIPVLKDELIHELKQTLNAIKLEEKGVYVQASTLGSLEALLEFLKTSEVPYAGINIGPVHKKDVMKASVMLEHDPQYAVILAFDVRIERDAQEMADSLGVRIFSAEIIYHLFDAFTKYRQDYKKQKQEEFKHIAVFPCKIKILPQYIFNSRDPIVMGVTVEAGQVKQGTPMCVPSKNFVDIGIVTSIEINHKQVDVAKKGQEVCVKIEPIPGESPKMFGRHFEATDILVSKISRQSIDALKDWFRDEMQKSDWQLIVELKKVFEII
# B6: DDX5 (protein)
# chain: MSGYSSDRDRGRDRGFGAPRFGGSRAGPLSGKKFGNPGEKLVKKKWNLDELPKFEKNFYQEHPDLARRTAQEVETYRRSKEITVRGHNCPKPVLNFYEANFPANVMDVIARQNFTEPTAIQAQGWPVALSGLDMVGVAQTGSGKTLSYLLPAIVHINHQPFLERGDGPICLVLAPTRELAQQVQQVAAEYCRACRLKSTCIYGGAPKGPQIRDLERGVEICIATPGRLIDFLECGKTNLRRTTYLVLDEADRMLDMGFEPQIRKIVDQIRPDRQTLMWSATWPKEVRQLAEDFLKDYIHINIGALELSANHNILQIVDVCHDVEKDEKLIRLMEEIMSEKENKTIVFVETKRRCDELTRKMRRDGWPAMGIHGDKSQQERDWVLNEFKHGKAPILIATDVASRGLDVEDVKFVINYDYPNSSEDYIHRIGRTARSTKTGTAYTFFTPNNIKQVSDLISVLREANQAINPKLLQLVEDRGSGRSRGRGGMKDDRRDRYSAGKRGGFNTFRDRENYDRGYSSLLKRDFGAKTQNGVYSAANYTNGSFGSNFVSAGIQTSFRTGNPTGTYQNGYDSTQQYGSNVPNMHNGMNQQAYAYPATAAAPMIGYPMPTGYSQ
# B7: NUFIP2 (protein)
# chain: MEEKPGQPQPQHHHSHHHPHHHPQQQQQQPHHHHHYYFYNHSHNHHHHHHHQQPHQYLQHGAEGSPKAQPKPLKHEQKHTLQQHQETPKKKTGYGELNGNAGEREISLKNLSSDEATNPISRVLNGNQQVVDTSLKQTVKANTFGKAGIKTKNFIQKNSMDKKNGKSYENKSGENQSVDKSDTIPIPNGVVTNNSGYITNGYMGKGADNDGSGSESGYTTPKKRKARRNSAKGCENLNIVQDKIMQQETSVPTLKQGLETFKPDYSEQKGNRVDGSKPIWKYETGPGGTSRGKPAVGDMLRKSSDSKPGVSSKKFDDRPKGKHASAVASKEDSWTLFKPPPVFPVDNSSAKIVPKISYASKVKENLNKTIQNSSVSPTSSSSSSSSTGETQTQSSSRLSQVPMSALKSVTSANFSNGPVLAGTDGNVYPPGGQPLLTTAANTLTPISSGTDSVLQDMSLTSAAVEQIKTSLFIYPSNMQTMLLSTAQVDLPSQTDQQNLGDIFQNQWGLSFINEPSAGPETVTGKSSEHKVMEVTFQGEYPATLVSQGAEIIPSGTEHPVFPKAYELEKRTSPQVLGSILKSGTTSESGALSLEPSHIGDLQKADTSSQGALVFLSKDYEIESQNPLASPTNTLLGSAKEQRYQRGLERNDSWGSFDLRAAIVYHTKEMESIWNLQKQDPKRIITYNEAMDSPDQ
# Biological target: T1, B3GNT2
# Experiment: Co-IP of FLAG-tagged B3GNT2 followed by mass spectrometry
# Type: cell-based
# Parameters: C-term IgG / C-term flag: unit not given here
# Conditions: Co-IP followed by mass spectrometry of B3GNT2; C-term tag, FLAG pull-down
# Outline: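 Co-purifying proteins were identified by fractionated nano-LC–MS/MS on an Orbitrap Elite, run data-dependent. Beforehand, lysates in 1% Triton X-100/HEPES buffer were incubated overnight at 4° C with anti-FLAG or […] and pulled down on Protein A/G magnetic beads for 4 h. Duplicate biological replicates.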
row,C-term flag,Molecule
1,9,B1
2,19,B2
3,0,B3
4,0,B4
5,3,B5
6,22,B6
7,5,B7

# Same assay, conditions: Co-IP followed by mass spectrometry of B3GNT2; C-term tag, IgG pull-down
row,C-term IgG,Molecule
1,7,B1
2,15,B2
3,0,B3
4,0,B4
5,0,B5
6,16,B6
7,4,B7

# Same assay, conditions: Co-IP followed by mass spectrometry of B3GNT2; N-term tag, FLAG pull-down
row,N-term FLAG,Molecule
1,8,B1
2,20,B2
3,3,B3
4,3,B4
5,0,B5
6,16,B6
7,3,B7

# Same assay, conditions: Co-IP followed by mass spectrometry of B3GNT2; N-term tag, IgG pull-down
row,N-term IgG,Molecule
1,8,B1
2,20,B2
3,0,B3
4,0,B4
5,0,B5
6,18,B6
7,3,B7
